Results as given in the nanobody polyreactivity screen of Harvey et al. (2022).

Assay: yeast display, Sf9 membrane polyspecificity reagent, FACS + sequencing; frameworks hold sequencing errors
Procedure, shortened: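 Genes from sorted yeast were amplified by colony PCR, read by MiSeq 2 × 250 sequencing and filtered on CDR length. These cells carried a synthetic nanobody library in Saccharomyces cerevisiae BJ5465 and were sorted by FACS into low and high (top ~1%) gates on anti-HA and streptavidin fluorescence. Polyreactivity is labelled according to the gate of origin.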

Sequence	polyreactivity (PSR sort gate)
QVQLVESGGGLVQAGGSLRLSCAASGRIFTRNVMGWYRQAPGKERELVAAITTNGGSTYYADSVKGRFTISRDNAKNTVYLQMNSLKPEDTAVYYCAKRTVHYTWVYYWGQGTQVTVSS	high polyreactivity
QVQLVESGGGLVQAGGSLRLSCAASGRIFTRYAMGWYRPSPGKERELVAAISRNGGGTYYAESVKGRFTISRDNAKNTVYLQMNSLKPEDTAVYYCNAESTFVWGSYVRYDYWGQGTQVTVSS	low polyreactivity
QVQLVESGGGLVQAGGSLRLSCAASGRIFTRYAMGWYRQAPGKERELVAAINSGGSTKYADSVKGRFTISRDNAKHTVYLQMNSLKPEDTAVYYCNACYWWYGYDYWGQGTQVTVSS	high polyreactivity
QVQLVESGGGLVQAGGSLRLSCAASGRIFTRYAMGWYRQAPGKERELVATISGSGSTNYADSVKGRFTISRDNAKNTVYLQMNSLKPEDTAVYYCNRRSRREYDYWGQGTQVTVSS	low polyreactivity
QVQLVESGGGLVQAGGSLRLSCAASGRIFTRYAMGWYRQAPGTERELVAVITRSGGSTYYADSVKGRFTISRDNAKNTVYLQMNSLKPEDTAVYYCAAKYYGEMYYWGQGTQVTVSS	low polyreactivity
QVQLVESGGGLVQAGGSLRLSCAASGRIFTRYAMGWYRQATGKERELVAAISSGGGNTYYADSVKGRFTISRDNAKNTVYLQMNSLKPEDTAVYYCAALRSWRKTGGAQRYWYDYWGQGTQVTVSS	high polyreactivity
QVQLVESGGGLVQAGGSLRLSCAASGRIFTSNAMGWYRQAPGKERELVAAISKSGGRTYYADSVKGRFTISRDNAKNTVYLQMNSLKPEDTAVYYCAKDNYWGQGTQVTVSS	high polyreactivity
QVQLVESGGGLVQAGGSLRLSCAASGRIFTSNAMGWYRQAPGKERELVAAISSSGTRTYYADSVKGRFTISRDNAKNTVYLQMNSHKPEDTAVYYCASGAPSLKYEYWGQGTQVTVSS	high polyreactivity
QVQLVESGGGLVQAGGSLRLSCAASGRIFTSNTMAWYRQAPGKERELVAAITSSGGSMYYADSVKGRFTLSRDNAKNTVYLQIISLKPEDTAVYYFAGDTIGYHYWYDYWGQGTQVTVSS	low polyreactivity
QVQLVESGGGLVQAGGSLRLSCAASGRIFTSYAMGWSRQAPGKERELVATISSADGTKYADSVKGRFTISRDNAKNTVYLQMNSLKPEDTAVYYCNAYVWSWNDYWGQGTQVTVSS	low polyreactivity
QVQLVESGGGLVQAGGSLRLSCAASGRIFTSYAMGWYRQAPGKERELVAAISRRGDSTYYADSVKGRFTISRDNAKNTVYLQMNSLKPEDTAVYYCNARSSRIWDYYGFDYWGQGTQVTVSS	high polyreactivity
QVQLVESGGGLVQAGGSLRLSCAASGRIFTSYAMGWYRQAPGKERELVAAITASGGRTYYADSVKGRFTISRDNAKNTVYLQMNCLKPEDTAVYYCAKLLSFQGDYWGQGTQVTVSS	high polyreactivity
QVQLVESGGGLVQAGGSLRLSCAASGRIFTSYTMGWYRQAPGKERELVAAIDWSGGTTYYADSVKGRFTISRDNAKNTVYLQMNSLKPEDTAVYYCAALYVKVGYYTYEYWGQGTQVTVSS	low polyreactivity
QVQLVESGGGLVQAGGSLRLSCAASGRIFTTYAMGWYRPAPGKERELVAAISQNGGSTYYADSVKGRFTISRDNAKNTVFLQMNSLKPEDTAVYYCNAGPAGYYDYDYWGQGTLVTVSS	low polyreactivity
QVQLVESGGGLVQAGGSLRLSCAASGRIFTTYAMGWYRQAPGKERELVAAISRSGGSTYYADSVKGRFTISRDNAKNTVYLQMNSLKPEDTAVYYCAAVPTSNSFLSSFYYWGQGTQVTVSS	high polyreactivity
QVQLVESGGGLVQAGGSLRLSCAASGRIFTTYAMGWYRQAPGKERELVAAISRSGGSTYYADSVKGRFTISRDNAKNTVYLQMNSLKTEDTAVYYCAAVPTSNSFRSSFYYWGQGTQVTVSS	high polyreactivity
QVQLVESGGGLVQAGGSLRLSCAASGRIFTTYAMGWYRQAPGKERELVARISSGGTTYYADSVQGRFTISRDNAKNTVYLQMNSLKPEDTAVYYCNVRAVTPTRSRPFRYDYWGQGTQVTVSS	high polyreactivity
QVQLVESGGGLVQAGGSLRLSCAASGRIFTTYAMGWYRQAPGKERELVASITTTDTRTYADSVKGRFTISRDNAKNTVYLQMNSLKPEDTAVYNCAKDRLNKGRYYRAASDYWGQGTQVTVSS	low polyreactivity
QVQLVESGGGLVQAGGSLRLSCAASGRIFTVYAMGWYRQAPGKERELVAAIDFSDGTTYYADSVKARFTISRDNAKNTVYLQMNSLKPEDTAVYYCAAEGGSALDDDYWGQGTQVTVSS	high polyreactivity
QVQLVESGGGLVQAGGSLRLSCAASGRIFTWYAMGWYRQAPGKERELVAAISWSGGRTYYADSVKGRFTISRDNAKNTVYLQMNSLKPEDTAVYYCNAVPSVRWRYDYWGQGTQVTVSS	high polyreactivity
QVQLVESGGGLVQAGGSLRLSCAASGRIFTYNAMGWSRQAPGKERELVAAISSSGGSTYYADSVKGRFTISRDIAKYTVYLHMNSLKPEDTAVYYCAADDAGFWYYFYGRYVTFDYWGQGTQVTVSS	low polyreactivity
QVQLVESGGGLVQAGGSLRLSCAASGRIFTYNAMGWYRQAPGKEWELVAVISRRGGSTYYADSVKGRFTISRDNAKNSVYLQINSLKPDDTAVYYWAADLPSYPYEFWGQGTQVTVSS	low polyreactivity

Sequence	polyreactivity (PSR sort gate)
QVQLVESGGGLVQAGGSLRLSCAASGRIFTYNAMGWYRQAPGKEWELVAVISRRGGSTYYADSVKGRFTISRDNAKNSVYLQMNSLKPEDTAVYYCAADLPSYAYEFWGQGTQVTVSS	low polyreactivity
QVQLVESGGGLVQAGGSLRLSCAASGRIFTYYAKGWYRQAPGKERELVAAISWSGGSTYYADSVKARITISRDNAKKTVYLVMNSLNPEDTAVYYCNAVYPSVYPVSTRYYWGQGTQVTVSS	high polyreactivity
QVQLVESGGGLVQAGGSLRLSCAASGRIFTYYAMGWYRQAPGKERELVAAISYSGSSTYYADSVKGRFTISRDNAKNTVYLQMNSLKPEDTAVYYCAAAPSGHYLAYGYWGQGTQVTVSS	high polyreactivity
QVQLVESGGGLVQAGGSLRLSCAASGRIFTYYAMGWYRQAPGKERELVAAITGSGTSTYYADSVKGRFTISRDNAKNTVYLQMNSLKPEDTAVYYCAARNSYSRYYYWGQGTQVTVSS	high polyreactivity
QVQLVESGGGLVQAGGSLRLSCAASGRIFTYYAMGWYRQAPGKERELVASISKSSGSTYYADSVKGRFTISRDNAKNTVYLQMNSLKPEDTAVYYCATDPYVRRSPSWYDYWGQGTQVTVSS	low polyreactivity
QVQLVESGGGLVQAGGSLRLSCAASGRIFVDNAMGWYRQAPGKERELVAAITGGGSTYADSVKGRFTISRDNAKNTVYLQMNSLKPEDTAVYYCAADLWSVPFTVYTFGIFYYWGQGTQVTVSS	low polyreactivity
QVQLVESGGGLVQAGGSLRLSCAASGRIFVDNAMGWYRQAPGKESELVADITSGGSTYYADSVKGRFTISRDNAKNTVYLQMNSLKPEDTAVYYCAADYRVSSDYRYDYWGQGTQVTVSS	low polyreactivity
QVQLVESGGGLVQAGGSLRLSCAASGRIFVDNTMGWYRQAPGKERELVAAISRRGTSTYYADSVKGRFTISRDTAKNTVFLQMNSLNPEDTAVYYCAADYYYYDSQQGMDYWGQGTQVTVSS	high polyreactivity
QVQLVESGGGLVQAGGSLRLSCAASGRIFVDYDMGWYRPAPGKERELVATISSGGSTNYADSVKGRFTISRDNAKNTVYLQMNSLKPEDTAVYYCAASSYSTSYIRGDYWGQGTQVTVSS	low polyreactivity
QVQLVESGGGLVQAGGSLRLSCAASGRIFVFNAMGWYRQAPGKERELVASISSSGGSTYYADSVKGRFTISRDNAKNTVYLQINSLKPEDTAVYYCARRSYHSRYNYWGQGTQVTVSS	high polyreactivity
QVQLVESGGGLVQAGGSLRLSCAASGRIFVFYAMGWYRQAPGKERELVAAITASSTRTYYADSVKGRFTISRDHAKNTVYLQLNSLKPEDTAVYYCARDIRQYILYGRGDYWGQGTQVTVSS	low polyreactivity
QVQLVESGGGLVQAGGSLRLSCAASGRIFVFYAMGWYRQAPGKERELVASITLTDGSTYYADSEKGRFTISRDNAKNTVYLQMNSLKPEDTAVYYCAARISGGSTFRYQRMYYWGQGTQVTVSS	low polyreactivity
QVQLVESGGGLVQAGGSLRLSCAASGRIFVGNAMGRYRQAPGKERELVAAISRSGGRTYYADSVKGRFTISRDNAKNTVYLQMNSLKPEDTAVYYCNTRVYAGKYDYWGQGTQVTVSS	high polyreactivity
QVQLVESGGGLVQAGGSLRLSCAASGRIFVGNTMGWYRQAPGKERELVAAISWRGRTSYADSVKGRFTISRDNAKNTVYLQMNSLKPEDTAVYYCNAEHAGATRYYYIANWMDYWGQGTQVTVSS	low polyreactivity
QVQLVESGGGLVQAGGSLRLSCAASGRIFVGYAMGWYRQAPGKEREFVAAITIGGTDTYYADSVKGRFTISRDNAKNTVYLQMNSLKPEDTAVYYCNADLLYPYDFDYWGQGTQVTVSS	low polyreactivity
QVQLVESGGGLVQAGGSLRLSCAASGRIFVGYAMGWYRQAPGKERELVAAINRSGSSTYYADSVKGRFTISRDNAKNTVYLQMNSLKPEDTAVYYCNARSGNRYGPRYDYWGQGTQVTVSS	high polyreactivity
QVQLVESGGGLVQAGGSLRLSCAASGRIFVGYAMGWYRQAPGKERELVAAISSDGGSTYYADSVKGRFTISRDNAKNTVYLQMNSLKPEDSAVYYCNAYYGRFPYYADDYWGQGTQVTVSS	low polyreactivity
QVQLVESGGGLVQAGGSLRLSCAASGRIFVGYAMGWYRQAPGKERELVAAITGSGGGTYYADSVKGRFTISRDNAKNTVYLQMNSLKPEDTAVYYCAATGYLKVRGYYAWHFYYWGQGTQVTVSS	high polyreactivity
QVQLVESGGGLVQAGGSLRLSCAASGRIFVGYAMGWYRQAPGKERELVAAITKSGGRTYYADSVKGRFTISRDNAKNTVYLQMNSLKPEDTAVYFCAKYLGRQHEKDLGGMNYWGQGTQLTVSS	high polyreactivity
QVQLVESGGGLVQAGGSLRLSCAASGRIFVGYAMGWYRQAPGKERELVAAITKSGGRTYYADSVKGRFTISRDNAKNTVYLQMNSLKPEDTAVYYCAVLNSKWNEYDYWGQGNQVTVSS	high polyreactivity
QVQLVESGGGLVQAGGSLRLSCAASGRIFVGYGMGWYRQAPGKERELVASIDTGGSTYYADSVKGRFTISRDNAKNTVYLQMNSLKPDDTAVYYCAADYQSYTSLTGYHNSEGDPWGQGTQVTVSS	low polyreactivity
